Source: US6156557A, “Alkaline protease from streptomyces sp. and method for preparing the same” (Toto Ltd., priority 1998, dated 2000)

B1: Subtilisin B. subtilis: conventional alkaline protease, subtilisin of B. subtilis (protein, UniProt P04189 107-381, looked up)
Subtilisin E: AQSVPYGISQIKAPALHSQGYTGSNVKVAVIDSGIDSSHPDLNVRGGASFVPSETNPYQDGSSHGTHVAGTIAALNNSIGVLGVAPSASLYAVKVLDSTGSGQYSWIINGIEWAISNNMDVINMSLGGPTGSTALKTVVDKAVSSGIVVAAAAGNEGSSGSTSTVGYPAKYPSTIAVGAVNSSNQRASFSSAGSELDVMAPGVSIQSTLPGGTYGAYNGTSMATPHVAGAAALILSKHPTWTNAQVRDRLESTATYLGNSFYYGKGLINVQAAAQ
B2: Subtilisin BPN^1: conventional alkaline protease, subtilisin BPN (protein, UniProt P00782 108-382, looked up)
Subtilisin BPN': AQSVPYGVSQIKAPALHSQGYTGSNVKVAVIDSGIDSSHPDLKVAGGASMVPSETNPFQDNNSHGTHVAGTVAALNNSIGVLGVAPSASLYAVKVLGADGSGQYSWIINGIEWAIANNMDVINMSLGGPSGSAALKAAVDKAVASGVVVVAAAGNEGTSGSSSTVGYPGKYPSVIAVGAVDSSNQRASFSSVGPELDVMAPGVSIQSTLPGNKYGAYNGTSMASPHVAGAAALILSKHPNWTNTQVRSSLENTTTKLGDSFYYGKGLINVQAAAQ
B3: Subtilisin Carlsberg: conventional alkaline protease, subtilisin Carlsberg (protein, UniProt P00780 106-379, looked up)
Subtilisin Carlsberg: AQTVPYGIPLIKADKVQAQGFKGANVKVAVLDTGIQASHPDLNVVGGASFVAGEAYNTDGNGHGTHVAGTVAALDNTTGVLGVAPSVSLYAVKVLNSSGSGSYSGIVSGIEWATTNGMDVINMSLGGASGSTAMKQAVDNAYAKGVVVVAAAGNSGSSGNTNTIGYPAKYDSVIAVGAVDSNSNRASFSSVGAELEVMAPGAGVYSTYPTNTYATLNGTSMASPHVAGAAALILSKHPNLSASQVRNRLSSTATYLGSSFYYGKGLINVEAAAQ

Assays:
[1] = test system: alkaline protease; format: biochemical, Streptomyces sp. TOTO-9305; conditions: for Residual Activity: pH 9
[2] = known alkaline proteases, values from References 1-3; cited from earlier work
[3] = test system: casein; conditions: known alkaline proteases, values from References 1-3; cited from earlier work
[4] = known alkaline proteases, values from References 1-3; cited from earlier work; remark: listed apart in the source
[5] = test system: casein; conditions: known alkaline proteases, values from References 1-3; cited from earlier work; remark: listed apart in the source
[6] = test system: keratin; conditions: known alkaline proteases, values from Reference 3; cited from earlier work

Molecule	inhibition of the activity of the enzyme (in words) [1]	Residual Activity [1]	Isoelectric Point [2]	Optimum pH: Casein [3]	Optimum Temp. [4]	Specific Activity: Casein [5]	Specific Activity: Keratin [6]
O=C(O)CN(CCN(CC(=O)O)CC(=O)O)CC(=O)O [EDTA, ethylene-diaminetetraacetic acid]	not inhibited	91	–	–	–	–	–
O=C(O)CI [Iodoacetic Acid, iodoacetic acid]	not inhibited	96	–	–	–	–	–
O=S(=O)(F)Cc1ccccc1 [PMSF, phenyl methanesulfonyl fluoride]	inhibited	0	–	–	–	–	–
CCCCCCCCCCCCOS(=O)(=O)[O-].[Na+] [SDS, sodium dodecylsulfate]	slightly inhibited	74	–	–	–	–	–
O=C(O)c1cc[c]([Hg][Cl])cc1 [PCMB, p-chloromercuribenzoate]	not inhibited	91	–	–	–	–	–
B1	–	–	7.5-8.0	10.5	55 °C	2,900 U/mg protein	–
B2	–	–	7.8	10.5	–	2,200 U/mg protein	436 U/mg protein
B3	–	–	9.8	10.5	50 °C	6,500 U/mg protein	888 U/mg protein
